B1: human GlcAT-1, residues 76-335 (enzyme, UniProt O94766 76-335, looked up)
chain: TIYVVTPTYARLVQKAELVRLSQTLSLVPRLHWLLVEDAEGPTPLVSGLLAASGLLFTHLVVLTPKAQRLREGEPGWVHPRGVEQRNKALDWLRGRGGAVGGEKDPPPPGTQGVVYFADDDNTYSRELFEEMRWTRGVSVWPVGLVGGLRFEGPQVQDGRVVGFHTAWEPSRPFPVDMAGFAVALPLLLDKPNAQFDSTAPRGHLESSLLSHLVDPKDLEPRAANCTRVLVWHTRTEKPKMKQEEQLQRQGRGSDPAIEV
notes: human glucuronyltransferase GlcAT-1, UniProt O94766, residues 76-335, without the N-terminal transmembrane anchoring helix; Made from the pETM30 vector; The 6xHis-GST tag was removed by TEV protease; The printed monomer mass is 29 kDa; also called GlcAT-1_76-335; source: E. coli BL21(DE3)pLysS, purified (IMAC, TEV cleavage, flow-through of the second IMAC); not shown: 6xHistidine, N-terminal, …
B2: SUMO-β3GalT6 fusion protein (human β3GalT6 residues 53-329) (enzyme, UniProt Q96L58 53-329, looked up)
chain: ARAAAFLAVLVASAPRAAERRSVIRSTWLARRGAPGDVWARFAVGTAGLGAEERRALEREQARHGDLLLLPALRDAYENLTAKVLAMLAWLDEHVAFEFVLKADDDSFARLDALLAELRAREPARRRRLYWGFFSGRGRVKPGGRWREAAWQLCDYYLPYALGGGYVLSADLVHYLRLSRDYLRAWHSEDVSLGAWLAPVDVQREHDPRFDTEYRSRGCSNQYLVTHKQSLEDMLEKHATLAREGRLCKREVQLRLSYVYDWSAPPSQCCQRREGIP
notes: human beta-1,3-galactosyltransferase 6, UniProt Q96L58, residues 53-329, without the N-terminal transmembrane anchoring helix; The fusion was not cleaved; The printed monomer mass is 45 kDa; also called β3GalT6_53-329; source: FreeStyle 293-F cells, transfected, culture supernatant, purified (one-step IMAC, dialysis); not shown: SUMO, N-terminal, kept; 6xHistidine, N-terminal, kept
B3: human β4GalT7, residues 81-327 (enzyme, UniProt Q9UBV7 81-327, looked up)
chain: PEHWEEDASWGPHRLAVLVPFRERFEELLVFVPHMRRFLSRKKIRHHIYVLNQVDHFRFNRAALINVGFLESSNSTDYIAMHDVDLLPLNEELDYGFPEAGPFHVASPELHPLYHYKTYVGGILLLSKQHYRLCNGMSNRFWGWGREDDEFYRRIKGAGLQLFRPSGITTGYKTFRHLHDPAWRKRDQKRIAAQKQEQFKVDREGGLNTVKYHVASRTALSVGGAPCTVLNIMLDCDKTATPWCTFS
notes: human beta-1,4-galactosyltransferase 7, UniProt Q9UBV7, residues 81-327, without the N-terminal transmembrane anchoring helix; Made from the pETM30 vector; The 6xHis-GST tag was removed by TEV protease; The printed monomer mass is 29 kDa; also called β4GalT7_81-327; source: E. coli Rosetta(DE3)pLysS, purified (IMAC, TEV cleavage, second IMAC, Superdex 200); not shown: 6xHistidine, N-terminal, …

Molecular target: the molecule itself
Assay: mass photometry; Refeyn OneMP; final protein concentration between 50 nM and 125 nM; XylT1 and SUMO-β3GalT6 in Tris buffer A (50 mM Tris pH 7.4, 250 mM NaCl) with 5% glycerol, β4GalT7 in S200 buffer (25 mM MES pH 6.5, 200 mM NaCl, 5% glycerol), GlcAT-1 in HEPES buffer; duplicates

Row | Protein | stoichiometry N
1 | B1 | 2
2 | B2 | 2
3 | B3 | 2

From article PMC11031135, “Chemo-enzymatic synthesis of tetrasaccharide linker peptides to study the divergent step in glycosaminoglycan biosynthesis” (Glycobiology, 2024)
